Results as given in publication PMC7775154.

Target: catalase (human) (UniProt P04040)
UniProt P04040, sequence (P04040 5-501): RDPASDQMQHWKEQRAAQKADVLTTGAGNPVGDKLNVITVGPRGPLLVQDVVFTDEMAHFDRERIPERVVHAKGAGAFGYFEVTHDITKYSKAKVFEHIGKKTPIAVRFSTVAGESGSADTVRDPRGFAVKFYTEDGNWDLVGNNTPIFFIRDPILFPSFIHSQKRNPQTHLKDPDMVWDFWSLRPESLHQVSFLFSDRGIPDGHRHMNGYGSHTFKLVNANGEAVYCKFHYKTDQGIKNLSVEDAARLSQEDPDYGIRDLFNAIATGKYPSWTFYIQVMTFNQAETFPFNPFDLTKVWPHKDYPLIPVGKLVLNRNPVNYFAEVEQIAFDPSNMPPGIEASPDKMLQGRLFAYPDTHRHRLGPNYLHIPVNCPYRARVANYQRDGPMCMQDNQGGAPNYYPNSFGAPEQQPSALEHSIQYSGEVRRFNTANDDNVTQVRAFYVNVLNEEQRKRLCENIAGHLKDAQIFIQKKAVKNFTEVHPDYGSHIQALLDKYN

“Aβ42 E22K (Italian type mutation, glutamic acid 22-to-lysine) (peptide)” was tested, and the H2O2 level in the blood of healthy controls after a 2 h incubation with E22K (H2O2 kit) was 86.5.
